# System: viral hemagglutinin on virions (vHA) (Influenza A virus A/chicken/Kurgan/3654at/2005 (H5N1))
# Test: BLI
# Settings: BLI at 30 C in sodium-potassium phosphate buffer pH 7.4 ([…]
row,Sequence,Kd [nM]
1,GGGAGGGAGGGAGGG [G7nt-A_A_A],0.2
2,GGGAGGGAGGGCGGG [G7nt-A_A_C],0.3
3,GGGAGGGTGGGTGGG [G7nt-A_T_T],0.2
4,GGGTGGGAGGGCGGG [G7nt-T_A_C],0.3
5,GGGTGGGAGGGTGGG [G7nt-T_A_T],0.07
6,GGGTGGGTGGGAGGG [G7nt-T_T_A],0.7
7,GGGTGGGTGGGTGGG [G7nt-T_T_T],0.6
8,GGGTTATTTTGGGAGGGCGGG [G7nt],0.13
9,GGGTTATTTTGGGAGGGCGGGGGTT [G7n5t],0.04
10,TTGGGGTTAGGGAGGGCGGGGGTT [G7-TTA_A_C],0.04
11,TTGGGGTTATTAAGGGAGGGCGGGGGTT [G7-TTATTAA_A_C],0.09
12,TTGGGGTTATTTTGGGAGGGCGGG [G7n3t],0.16
13,TTGGGGTTATTTTGGGAGGGCGGGGGTT [RHA0385],0.05
